Assay results published in patent US20120219559A1 (Johns Hopkins, published 2012).

What was measured:
[1] = biological target: T1, human CTLA-4, full length, expressed on cells (CTLA-4+293T cells) (human, UniProt P16410 36-223); experiment: CDS well image, 293T cells transfected with the human gene, stained with the human fusion protein
T1 sequence: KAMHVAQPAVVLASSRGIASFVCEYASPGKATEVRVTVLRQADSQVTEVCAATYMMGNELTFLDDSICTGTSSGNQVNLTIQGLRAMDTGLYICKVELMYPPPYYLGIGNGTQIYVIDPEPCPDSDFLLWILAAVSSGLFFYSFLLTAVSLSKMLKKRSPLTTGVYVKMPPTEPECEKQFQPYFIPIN

[2] = biological target: T2, human B7-DC expressed on 293T cells (human, UniProt Q9BQ51 20-273); experiment: as above
T2 construct: whole, on cells
T2 sequence (looked up): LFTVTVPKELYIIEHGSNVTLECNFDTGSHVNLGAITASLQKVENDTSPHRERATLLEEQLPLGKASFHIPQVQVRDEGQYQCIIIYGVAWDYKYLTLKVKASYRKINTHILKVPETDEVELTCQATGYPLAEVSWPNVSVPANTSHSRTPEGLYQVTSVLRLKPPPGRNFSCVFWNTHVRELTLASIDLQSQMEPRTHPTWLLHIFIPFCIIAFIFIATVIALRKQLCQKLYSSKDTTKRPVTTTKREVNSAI

[3] = biological target: T3, human ICOS, full length, expressed on cells (ICOS+293T cells) (human, UniProt Q9Y6W8 21-199); experiment: as above
T3 construct: This id also stands for ICOS on human T cells in the functional rows
T3 sequence: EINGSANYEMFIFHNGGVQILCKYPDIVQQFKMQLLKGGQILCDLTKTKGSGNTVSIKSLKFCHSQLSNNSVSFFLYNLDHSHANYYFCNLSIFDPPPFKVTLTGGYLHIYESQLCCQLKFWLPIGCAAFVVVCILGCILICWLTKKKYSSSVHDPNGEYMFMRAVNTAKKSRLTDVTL

[4] = biological target: T4, human B7-H1 expressed on 293T cells (human, UniProt Q9NZQ7 19-290); experiment: as above
T4 construct: whole, on cells
T4 sequence (Q9NZQ7 19-290): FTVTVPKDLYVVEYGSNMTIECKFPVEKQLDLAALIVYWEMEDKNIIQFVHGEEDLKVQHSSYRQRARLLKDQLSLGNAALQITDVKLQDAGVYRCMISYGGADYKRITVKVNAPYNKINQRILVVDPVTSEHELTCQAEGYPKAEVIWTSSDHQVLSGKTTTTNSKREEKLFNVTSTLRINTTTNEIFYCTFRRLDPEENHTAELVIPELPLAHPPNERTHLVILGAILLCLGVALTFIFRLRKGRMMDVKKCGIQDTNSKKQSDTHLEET

[5] = biological target: T5, human B7-1 (CD80) expressed on 293T cells (human, UniProt P33681 35-288); experiment: as above
T5 construct: whole, on cells
T5 sequence (looked up): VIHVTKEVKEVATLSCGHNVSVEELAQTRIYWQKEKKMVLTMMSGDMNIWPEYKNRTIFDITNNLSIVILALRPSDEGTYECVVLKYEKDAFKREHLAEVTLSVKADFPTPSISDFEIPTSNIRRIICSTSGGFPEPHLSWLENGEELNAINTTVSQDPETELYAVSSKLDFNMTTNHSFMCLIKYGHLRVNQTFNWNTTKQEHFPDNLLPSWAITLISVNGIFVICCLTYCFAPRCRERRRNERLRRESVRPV

[6] = biological target: T6, B7-H2 (Y51A) mutant, full length with C terminal GFP tag, on 293T cells (human, UniProt O75144 19-302, The C-terminal GFP reporter is not carried in the letters.); experiment: flow cytometry; ICOSIg binding to 293T cells expressing the mutant
T6 construct: not shown: C-terminal GFP tag and any linker to it
T6 sequence: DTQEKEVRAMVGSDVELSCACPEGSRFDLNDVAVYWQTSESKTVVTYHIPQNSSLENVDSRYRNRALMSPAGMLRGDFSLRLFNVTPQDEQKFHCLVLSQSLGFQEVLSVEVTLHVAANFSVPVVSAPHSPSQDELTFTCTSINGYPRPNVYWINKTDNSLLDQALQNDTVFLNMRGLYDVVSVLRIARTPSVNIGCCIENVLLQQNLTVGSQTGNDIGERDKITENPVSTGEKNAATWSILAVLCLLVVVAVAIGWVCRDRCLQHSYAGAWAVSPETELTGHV
Text: (§1) These residues were all converted to alanine, a small […] amino acid with neutral charge, to avoid a large overall structure modulation (16).

[7] = biological target: T7, B7-H2 (Y53A) mutant, full length with C terminal GFP tag, on 293T cells (human, UniProt O75144 19-302, The C-terminal GFP reporter is not carried in the letters.); experiment: as above
T7 construct: not shown: C-terminal GFP tag and any linker to it
T7 sequence: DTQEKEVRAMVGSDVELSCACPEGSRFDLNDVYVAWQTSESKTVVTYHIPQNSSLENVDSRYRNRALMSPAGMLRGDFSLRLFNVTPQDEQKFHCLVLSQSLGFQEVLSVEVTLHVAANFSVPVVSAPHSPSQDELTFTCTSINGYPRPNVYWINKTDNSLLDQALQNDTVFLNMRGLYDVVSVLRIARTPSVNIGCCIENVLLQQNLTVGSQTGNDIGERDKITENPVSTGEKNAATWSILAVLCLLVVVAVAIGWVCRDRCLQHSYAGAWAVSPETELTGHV
Text: as §1

[8] = biological target: T8, human B7-H2Ig fusion protein (human, UniProt O75144 19-258); experiment: SPR (BIAcore 3000), ICOSIg injected over B7-H2Ig coupled at 500 RU, 1:1 fit
T8 construct: Ig (Fc) part not given
T8 sequence: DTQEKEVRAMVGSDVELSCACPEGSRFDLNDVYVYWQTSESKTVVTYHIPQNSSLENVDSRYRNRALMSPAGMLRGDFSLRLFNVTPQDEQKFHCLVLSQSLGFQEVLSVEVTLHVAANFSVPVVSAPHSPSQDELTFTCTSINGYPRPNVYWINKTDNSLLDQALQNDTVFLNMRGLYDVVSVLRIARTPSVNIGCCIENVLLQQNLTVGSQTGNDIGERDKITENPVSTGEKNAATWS
Description: For all experiments, the same fusion proteins were injected into uncoated control flow cells to serve as the control. Binding data was overlaid with the fit of 1:1 interaction model.
Surface Plasmon Resonance. Protein interactions were measured and analyzed on a BIAcore 3000 instrument (BIAcore AB, Uppsala, Sweden) performed at 25° C. as described previously 20. […] Hepes, pH 7.4, containing 0.15 M NaCl, 0.005% surfactant P20 (HBS) was used as running buffer. […] All other reagents were purchased from BIAcore. […] The remaining activated carboxyl groups were blocked with 1 M ethanolamine (pH 8.5). Subsequently, the flow cells were extensively washed with HBS to generate a stable baseline. […] The flow cells were regenerated by two consecutive 10-second pulses with 10 mM NaOH. Data was analyzed by BIAevaluation software 4.1 (BIAcore).

binding result [1]: no binding
binding result [2]: no binding
binding result [3]: no binding
binding result [4]: no binding
binding result [5]: no binding
binding result [6]: no binding
binding result [7]: no binding
Kd [8]: 16 nM
B1: human ICOSIg fusion protein (Fc fusion)
chain: EINGSANYEMFIFHNGGVQILCKYPDIVQQFKMQLLKGGQILCDLTKTKGSGNTVSIKSLKFCHSQLSNNSVSFFLYNLDHSHANYYFCNLSIFDPPPFKVTLTGGYLHIYESQLCCQLKF
notes: Bought from R&D Systems; Ig (Fc) part not given
